Results from the supplement of paper PMC5998384.

Key:
HeLa Kyoto [1] = test: solubility in G1/S (NP-40 vs SDS abundance) (log2 ratio); higher = more soluble; conditions: cell cycle stage: G1/S
HeLa Kyoto [2] = test: solubility change mitosis vs G1/S (difference of NP-40 vs SDS log2 ratios) (log2 ratio difference); higher = more soluble in mitosis
HeLa Kyoto [3] = test: thermal stability score vs G1/S (z-score of summed log2 fold changes over temperatures); higher = more thermally stable than in G1/S
[4] = cell cycle stage: early G1 (4.5 h after nocodazole release)
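For solubility change mitosis vs G1/S (difference of NP-40 vs SDS log2 ratios) in this document: synchronized HeLa Kyoto cells (double thymidine block for G1/S, nocodazole release for mitosis), protein amounts in NP-40 versus SDS lysates quantified by mass spectrometry, three biological replicates.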
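For solubility in G1/S (NP-40 vs SDS abundance) in this document: HeLa Kyoto cells arrested at G1/S by double thymidine block, proteins quantified by TMT10plex mass spectrometry in mild NP-40 versus SDS extracts, three biological replicates.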
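For thermal stability score vs G1/S (z-score of summed log2 fold changes over temperatures) in this document: synchronized HeLa Kyoto cells, proteins quantified by TMT10plex mass spectrometry, three biological replicates, mitosis taken 0.5 h after nocodazole release, G1/S directly after double thymidine block.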

| Substance | solubility in G1/S (log2) (HeLa Kyoto [1]) | solubility change mitosis (log2) (HeLa Kyoto [2]) | thermal stability score (HeLa Kyoto [3]; [4]) | thermal stability score (HeLa Kyoto [3]; cell cycle stage: mitosis) |
| --- | --- | --- | --- | --- |
| MKVVPEKNAVRILWGRERGARAMGAQRLLQELVEDKTRWMKWEGKRVELPDSPRSTFLLAFSPDRTLLASTHVNHNIYITEVKTGKCVHSLIGHRRTPWCVTFHPTISGLIASGCLDGEVRIWDLHGGSESWFTDSNNAIASLAFHPTAQLLLIATANEIHFWDWSRREPFAVVKTASEMERVRLVRFDPLGHYLLTAIVNPSNQQGDDEPEIPIDGTELSHYRQRALLQSQPVRRTPLLHNFLHMLSSRSSGIQVGEQSTVQDSATPSPPPPPPQPSTERPRTSAYIRLRQRVSYPTAECCQHLGILCLCSRCSGTRVPSLLPHQDSVPPASARATTPSFSFVQTEPFHPPEQASSTQQDQGLLNRPSAFSTVQSSTAGNTLRNLSLGPTRRSLGGPLSSHPSRYHREIAPGLTGSEWTRTVLSLNSRSEAESMPPPRTSASSVSLLSVLRQQEGGSQASVYTSATEGRGFPASGLATESDGGNGSSQNNSGSIRHELQCDLRRFFLEYDRLQELDQSLSGEAPQTQQAQEMLNNNIESERPGPSHQPTPHSSENNSNLSRGHLNRCRACHNLLTFNNDTLRWERTTPNYSSGEASSSWQVPSSFESVPSSGSQLPPLERTEGQTPSSSRLELSSSASPQEERTVGVAFNQETGHWERIYTQSSRSGTVSQEALHQDMPEESSEEDSLRRRLLESSLISLSRYDGAGSREHPIYPDPARLSPAAYYAQRMIQYLSRRDSIRQRSMRYQQNRLRSSTSSSSSDNQGPSVEGTDLEFEDFEDNGDRSRHRAPRNARMSAPSLGRFVPRRFLLPEYLPYAGIFHERGQPGLATHSSVNRVLAGAVIGDGQSAVASNIANTTYRLQWWDFTKFDLPEISNASVNVLVQNCKIYNDASCDISADGQLLAAFIPSSQRGFPDEGILAVYSLAPHNLGEMLYTKRFGPNAISVSLSPMGRYVMVGLASRRILLHPSTEHMVAQVFRLQQAHGGETSMRRVFNVLYPMPADQRRHVSINSARWLPEPGLGLAYGTNKGDLVICRPEALNSGVEYYWDQLNETVFTVHSNSRSSERPGTSRATWRTDRDMGLMNAIGLQPRNPATSVTSQGTQTLALQLQNAETQTEREVPEPGTAASGPGEGEGSEYGASGEDALSRIQRLMAEGGMTAVVQREQSTTMASMGGFGNNIIVSHRIHRSSQTGTEPGAAHTSSPQPSTSRGLLPEAGQLAERGLSPRTASWDQPGTPGREPTQPTLPSSSPVPIPVSLPSAEGPTLHCELTNNNHLLDGGSSRGDAAGPRGEPRNR [AMBRA1] | 0.0307 | -0.123 | 0.941 | 1.96 |
| MSSILPFTPPIVKRLLGWKKGEQNGQEEKWCEKAVKSLVKKLKKTGQLDELEKAITTQNVNTKCITIPRSLDGRLQVSHRKGLPHVIYCRLWRWPDLHSHHELRAMELCEFAFNMKKDEVCVNPYHYQRVETPVLPPVLVPRHTEIPAEFPPLDDYSHSIPENTNFPAGIEPQSNIPETPPPGYLSEDGETSDHQMNHSMDAGSPNLSPNPMSPAHNNLDLQPVTYCEPAFWCSISYYELNQRVGETFHASQPSMTVDGFTDPSNSERFCLGLLSNVNRNAAVELTRRHIGRGVRLYYIGGEVFAECLSDSAIFVQSPNCNQRYGWHPATVCKIPPGCNLKIFNNQEFAALLAQSVNQGFEAVYQLTRMCTIRMSFVKGWGAEYRRQTVTSTPCWIELHLNGPLQWLDKVLTQMGSPSIRCSSVS [SMAD3] | -0.184 | 0.0397 | -0.574 | -1.15 |
| MDSQELKTLINYYCQERYFHHVLLVASEGIKRYGSDPVFRFYHAYGTLMEGKTQEALREFEAIKNKQDVSLCSLLALIYAHKMSPNPDREAILESDARVKEQRKGAGEKALYHAGLFLWHIGRHDKAREYIDRMIKISDGSKQGHVLKAWLDITRGKEPYTKKALKYFEEGLQDGNDTFALLGKAQCLEMRQNYSGALETVNQIIVNFPSFLPAFVKKMKLQLALQDWDQTVETAQRLLLQDSQNVEALRMQALYYVCREGDIEKASTKLENLGNTLDAMEPQNAQLFYNITLAFSRTCGRSQLILQKIQTLLERAFSLNPQQSEFATELGYQMILQGRVKEALKWYKTAMTLDETSVSALVGFIQCQLIEGQLQDADQQLEFLNEIQQSIGKSAELIYLHAVLAMKKNKRQEEVINLLNDVLDTHFSQLEGLPLGIQYFEKLNPDFLLEIVMEYLSFCPMQPASPGQPLCPLLRRCISVLETVVRTVPGLLQTVFLIAKVKYLSGDIEAAFNNLQHCLEHNPSYADAHLLLAQVYLSQEKVKLCSQSLELCLSYDFKVRDYPLYHLIKAQSQKKMGEIADAIKTLHMAMSLPGMKRIGASTKSKDRKTEVDTSHRLSIFLELIDVHRLNGEQHEATKVLQDAIHEFSGTSEEVRVTIANADLALAQGDIERALSILQNVTAEQPYFIEAREKMADIYLKHRKDKMLYITCFREIAERMANPRSFLLLGDAYMNILEPEEAIVAYEQALNQNPKDGTLASKMGKALIKTHNYSMAITYYEAALKTGQKNYLCYDLAELLLKLKWYDKAEKVLQHALAHEPVNELSALMEDGRCQVLLAKVYSKMEKLGDAITALQQARELQARVLKRVQMEQPDAVPAQKHLAAEICAEIAKHSVAQRDYEKAIKFYREALVHCETDNKIMLELARLYLAQDDPDSCLRQCALLLQSDQDNEAATMMMADLMFRKQDYEQAVFHLQQLLERKPDNYMTLSRLIDLLRRCGKLEDVPRFFSMAEKRNSRAKLEPGFQYCKGLYLWYTGEPNDALRHFNKARKDRDWGQNALYNMIEICLNPDNETVGGEVFENLDGDLGNSTEKQESVQLAVRTAEKLLKELKPQTVQGHVQLRIMENYCLMATKQKSNVEQALNTFTEIAASEKEHIPALLGMATAYMILKQTPRARNQLKRIAKMNWNAIDAEEFEKSWLLLADIYIQSAKYDMAEDLLKRCLRHNRSCCKAYEYMGYIMEKEQAYTDAALNYEMAWKYSNRTNPAVGYKLAFNYLKAKRYVDSIDICHQVLEAHPTYPKIRKDILDKARASLRP [TTC21B] | -0.116 | -0.211 | 1.06 | 0.205 |
| MGGGDLNLKKSWHPQTLRNVEKVWKAEQKHEAERKKIEELQRELREERAREEMQRYAEDVGAVKKKEEKLDWMYQGPGGMVNRDEYLLGRPIDKYVFEKMEEKEAGCSSETGLLPGSIFAPSGANSLLDMASKIREDPLFIIRKKEEEKKREVLNNPVKMKKIKELLQMSLEKKEKKKKKEKKKKHKKHKHRSSSSDRSSSEDEHSAGRSQKKMANSSPVLSKVPGYGLQVRNSDRNQGLQGPLTAEQKRGHGMKNHSRSRSSSHSPPRHASKKSTREAGSRDRRSRSLGRRSRSPRPSKLHNSKVNRRETGQTRSPSPKKEVYQRRHAPGYTRKLSAEELERKRQEMMENAKWREEERLNILKRHAKDEEREQRLEKLDSRDGKFIHRMKLESASTSSLEDRVKRNIYSLQRTSVALEKNFMKR [CWC25] | -0.718 | 0.463 | -0.522 | -0.488 |
| MSRPVRNRKVVDYSQFQESDDADEDYGRDSGPPTKKIRSSPREAKNKRRSGKNSQEDSEDSEDKDVKTKKDDSHSAEDSEDEKEDHKNVRQQRQAASKAASKQREMLMEDVGSEEEQEEEDEAPFQEKDSGSDEDFLMEDDDDSDYGSSKKKNKKMVKKSKPERKEKKMPKPRLKATVTPSPVKGKGKVGRPTASKASKEKTPSPKEEDEEPESPPEKKTSTSPPPEKSGDEGSEDEAPSGED [NUCKS1] | 0.444 | 0.307 | -0.14 | 1.15 |
| MELKVWVDGVQRIVCGVTEVTTCQEVVIALAQAIGRTGRYTLIEKWRDTERHLAPHENPIISLNKWGQYASDVQLILRRTGPSLSERPTSDSVARIPERTLYRQSLPPLAKLRPQIDKSIKRREPKRKSLTFTGGAKGLMDIFGKGKETEFKQKVLNNCKTTADELKKLIRLQTEKLQSIEKQLESNEIEIRFWEQKYNSNLEEEIVRLEQKIKRNDVEIEEEEFWENELQIEQENEKQLKDQLQEIRQKITECENKLKDYLAQIRTMESGLEAEKLQREVQEAQVNEEEVKGKIGKVKGEIDIQGQQSLRLENGIKAVERSLGQATKRLQDKEQELEQLTKELRQVNLQQFIQQTGTKVTVLPAEPIEIEASHADIEREAPFQSGSLKRPGSSRQLPSNLRILQNPISSGFNPEGIYV [RASSF8] | 0.445 | 0.00342 | 0.245 | -0.268 |
| MKLVNIWLLLLVVLLCGKKHLGDRLEKKSFEKAPCPGCSHLTLKVEFSSTVVEYEYIVAFNGYFTAKARNSFISSALKSSEVDNWRIIPRNNPSSDYPSDFEVIQIKEKQKAGLLTLEDHPNIKRVTPQRKVFRSLKYAESDPTVPCNETRWSQKWQSSRPLRRASLSLGSGFWHATGRHSSRRLLRAIPRQVAQTLQADVLWQMGYTGANVRVAVFDTGLSEKHPHFKNVKERTNWTNERTLDDGLGHGTFVAGVIASMRECQGFAPDAELHIFRVFTNNQVSYTSWFLDAFNYAILKKIDVLNLSIGGPDFMDHPFVDKVWELTANNVIMVSAIGNDGPLYGTLNNPADQMDVIGVGGIDFEDNIARFSSRGMTTWELPGGYGRMKPDIVTYGAGVRGSGVKGGCRALSGTSVASPVVAGAVTLLVSTVQKRELVNPASMKQALIASARRLPGVNMFEQGHGKLDLLRAYQILNSYKPQASLSPSYIDLTECPYMWPYCSQPIYYGGMPTVVNVTILNGMGVTGRIVDKPDWQPYLPQNGDNIEVAFSYSSVLWPWSGYLAISISVTKKAASWEGIAQGHVMITVASPAETESKNGAEQTSTVKLPIKVKIIPTPPRSKRVLWDQYHNLRYPPGYFPRDNLRMKNDPLDWNGDHIHTNFRDMYQHLRSMGYFVEVLGAPFTCFDASQYGTLLMVDSEEEYFPEEIAKLRRDVDNGLSLVIFSDWYNTSVMRKVKFYDENTRQWWMPDTGGANIPALNELLSVWNMGFSDGLYEGEFTLANHDMYYASGCSIAKFPEDGVVITQTFKDQGLEVLKQETAVVENVPILGLYQIPAEGGGRIVLYGDSNCLDDSHRQKDCFWLLDALLQYTSYGVTPPSLSHSGNRQRPPSGAGSVTPERMEGNHLHRYSKVLEAHLGDPKPRPLPACPRLSWAKPQPLNETAPSNLWKHQKLLSIDLDKVVLPNFRSNRPQVRPLSPGESGAWDIPGGIMPGRYNQEVGQTIPVFAFLGAMVVLAFFVVQINKAKSRPKRRKPRVKRPQLMQQVHPPKTPSV [MBTPS1] | 0.0339 | -0.198 | -1.77 | -1.37 |
| MASADKNGGSVSSVSSSRLQSRKPPNLSITIPPPEKETQAPGEQDSMLPEGFQNRRLKKSQPRTWAAHTTACPPSFLPKRKNPAYLKSVSLQEPRSRWQESSEKRPGFRRQASLSQSIRKGAAQWFGVSGDWEGQRQQWQRRSLHHCSMRYGRLKASCQRDLELPSQEAPSFQGTESPKPCKMPKIVDPLARGRAFRHPEEMDRPHAPHPPLTPGVLSLTSFTSVRSGYSHLPRRKRMSVAHMSLQAAAALLKGRSVLDATGQRCRVVKRSFAFPSFLEEDVVDGADTFDSSFFSKEEMSSMPDDVFESPPLSASYFRGIPHSASPVSPDGVQIPLKEYGRAPVPGPRRGKRIASKVKHFAFDRKKRHYGLGVVGNWLNRSYRRSISSTVQRQLESFDSHRPYFTYWLTFVHVIITLLVICTYGIAPVGFAQHVTTQLVLRNKGVYESVKYIQQENFWVGPSSIDLIHLGAKFSPCIRKDGQIEQLVLRERDLERDSGCCVQNDHSGCIQTQRKDCSETLATFVKWQDDTGPPMDKSDLGQKRTSGAVCHQDPRTCEEPASSGAHIWPDDITKWPICTEQARSNHTGFLHMDCEIKGRPCCIGTKGSCEITTREYCEFMHGYFHEEATLCSQVHCLDKVCGLLPFLNPEVPDQFYRLWLSLFLHAGVVHCLVSVVFQMTILRDLEKLAGWHRIAIIFILSGITGNLASAIFLPYRAEVGPAGSQFGLLACLFVELFQSWPLLERPWKAFLNLSAIVLFLFICGLLPWIDNIAHIFGFLSGLLLAFAFLPYITFGTSDKYRKRALILVSLLAFAGLFAALVLWLYIYPINWPWIEHLTCFPFTSRFCEKYELDQVLH [RHBDF2] | -0.177 | 0.063 | -2.24 | -2.01 |
| MED13 | -0.213 | -0.112 | -0.573 | -0.435 |
